This is an account of results in US20240294895A1, “ENZYMATIC COMPOSITIONS FOR CARBOHYDRATE ANTIGEN CLEAVAGE ON DONOR ORGANS, METHODS AND USES ASSOCIATED THEREWITH” (THE UNIVERSITY OF BRITISH COLUMBIA, priority 2018, published 2024).

Type in all cases: biochemical, Flavonifractor plautii
Substrate in data set [1]: CC(=O)N[C@H]1[C@H](Oc2ccc3c(C)cc(=O)oc3c2)O[C@H](CO)[C@@H](O[C@@H]2O[C@H](CO)[C@H](O)[C@H](O[C@H]3O[C@H](CO)[C@H](O)[C@H](O)[C@H]3NC(C)=O)[C@H]2O[C@@H]2O[C@@H](C)[C@@H](O)[C@@H](O)[C@@H]2O)[C@@H]1O
In words: Cleavage of A antigen Type2tetra-MU by FpGalNAcDeAc_D1min WT. The following applies: other: WT, pH 7.4, 37° C. How it is done:
kcat/KM parameter were determined for A antigen subtype 1/2/4tetra-MU at pH 7.4 at 37° C. Reactions (total volume of 100 μL) were performed in black 96-plate wells and as coupled assays in 100 mM NaH2PO4 (pH 7.4) with 12 nM FpGalNAcDeacetylase 0.1 mg/mL SpHex, BgaC (BgaA for subtype II), AfcA, at varying concentrations of substrate (25 μM, 20 μM, 15 μM, 10 μM, 7.5 μM, 5 μM). The reactions were run as a series of four with controls (no FpGalNAcDeacetylase) as duplicates. The fluorescence signal (365/435 nm) resulting from MU release by hydrolysis was monitored on a Synergy H1™ plate reader (BioTek™) and converted to concentration using MU standard concentration curves determined under identical reaction conditions. Initial rates (μM/s) were determined and plotted in Grafit™ 7.0 to determine the kcat/KM (s^−1*mM^−1) parameters.
Based on structural information (not shown) and sequence alignment (not shown) FpGalNAcDeAc_D1min and FpGalNase_truncA were mutated using the QuickChange™ protocol (Zhang 2004), utilizing the primers noted in TABLE B. The mutants were purified via NiNTA and HIC columns as described above. The structural integrity of all mutants was checked via CD spectroscopy; all tested enzymes were structurally similar to their wild-type. […]

Substrate in data set [2]: CC(=O)N[C@H]1[C@@H](O[C@H]2[C@@H](O)[C@@H](CO)O[C@@H](O[C@H]3[C@H](O)[C@@H](CO)O[C@@H](O[C@H]4[C@@H](O)[C@@H](CO)O[C@@H](Oc5ccc6c(C)cc(=O)oc6c5)[C@@H]4O)[C@@H]3NC(C)=O)[C@@H]2O[C@@H]2O[C@@H](C)[C@@H](O)[C@@H](O)[C@@H]2O)O[C@H](CO)[C@H](O)[C@@H]1O
Briefly: Kinetic parameters of FpGalNAcDeAc_D1ext (coupled fluorescence assay, MU release). The following applies: other: 100 mM NaH2PO4, pH 7.4, 37° C. How it is done:
(§1) All kinetic assays utilizing 4-methylumbelliferone as leaving group were performed through measurement of fluorescence. To avoid measurement errors based on the inner filter effect (Palmier 2007) standard curves were used to validate the linear range of the fluorophore.
(§2) Michaelis-Menten parameters were determined for A antigen subtype 1penta-MU in 100 mM NaH2PO4, pH 7.4 at 37° C. using the coupled assays described previously (Kwan 2015). The assay was modified to allow detection of cleavage of the subtype 1 (and later 4), by use of BgaC (Jeong 2009) instead of BgaA (Singh 2014) as β-galactosidase. In addition, since A antigen subtype 1penta-MU contains an additional galactose, the concentration of BgaC was increased to 0.2 mg/mL to compensate for its need to cleave both the Gal-β-1,3-B-GlcNAc-β-1,3-Gal-β-MU and Gal-β-MU. Further, FpGalactosaminidase was included to allow the cleavage of the galactosamine-containing intermediate. Reaction setup in 100 μl was 3 nM FpGalNacDeacetylase (4.52 nM FpGalNacDeAc_D1ext, 3.55 nM FpGalNacDeAc_D1+2) and 0.01 mg/mL FpGalactosaminidase, 0.1 mg/mL SpHex, AfcA, 0.2 mg/mL BgaC and varying concentrations of substrate (5 μM-2.5 mM). The reactions were run as a series of four with controls (no FpGalNacDeacetylase) as duplicates. The fluorescence signal (365/435 nm) resulting from MU release by hydrolysis was monitored on a Synergy H1™ plate reader (BioTek™) and converted to concentration using MU standard concentration curves determined under identical reaction conditions. Initial rates (μM/s) were determined and plotted in Grafit 7.0 to determine the kinetic parameters.

Substrate in data set [3]: CC(=O)N[C@H]1[C@@H](O[C@H]2[C@@H](O)[C@@H](CO)O[C@@H](O[C@H]3[C@H](O)[C@@H](CO)O[C@@H](O[C@H]4[C@@H](O)[C@@H](CO)O[C@@H](Oc5ccc6c(C)cc(=O)oc6c5)[C@@H]4O)[C@@H]3NC(C)=O)[C@@H]2O[C@@H]2O[C@@H](C)[C@@H](O)[C@@H](O)[C@@H]2O)O[C@H](CO)[C@H](O)[C@@H]1O
Briefly: Kinetic parameters of FpGalNAcDeAc_D1+2 (coupled fluorescence assay, MU release). The following applies: other: 100 mM NaH2PO4, pH 7.4, 37° C. The protocol: as §1, §2

Substrate in data set [4]: CC(=O)N[C@H]1[C@H](O[C@H]2[C@@H](O)[C@@H](CO)O[C@@H](Oc3ccc4c(C)cc(=O)oc4c3)[C@@H]2O)O[C@H](CO)[C@@H](O)[C@@H]1O[C@@H]1O[C@H](CO)[C@H](O)[C@H](O[C@H]2O[C@H](CO)[C@H](O)[C@H](O)[C@H]2N)[C@H]1O[C@@H]1O[C@@H](C)[C@@H](O)[C@@H](O)[C@@H]1O
In words: Kinetic parameters of FpGalNase_truncA (coupled fluorescence assay, MU release). The following applies: other: 100 mM NaH2PO4, pH 7.4, 37° C. How it is done: as §1
Michaelis-Menten parameter was determined for GalN antigen subtype 1penta-MU and A antigen subtype 1penta-MU in 100 mM NaH2PO4, pH 7.4 at 37° C. Reaction was performed in 100 μl with 3.4 nM FpGalactosaminidase (5.31 nM FpGalNase_truncA) and 0.1 mg/mL SpHex, AfcA, 0.2 mg/mL BgaC and varying concentrations of substrate (5 μM-2 mM). The reactions were run as a series of four with controls (no FpGalactosaminidase) as duplicates. The fluorescence signal (365/435 nm) resulting from MU release by hydrolysis was monitored by Synergy H1™ plate reader [BioTek™] and converted to concentration using MU standard concentration curves determined under identical reaction conditions. Initial rates (μM/s) were determined and plotted in Grafit 7.0™ to determine the kinetic parameters.

B1: Flavonifractor plautii GalNAcDeacetylase FpGalNAcDeAc_D1min, WT (Flavonifractor plautii) (protein)
chain: ADSSESALNKAPGYQDFPAYYSDSAHADDQVTHPDVVVLEEPWNGYRYWAVYTPNVMRISIYENPSIVASSDGVHWVEPEGLSNPIEPQPPSTRYHNCDADMVYNAEYDAMMAYWNWADDQGGGVGAEVRLRISYDGVHWGVPVTYDEMTRVWSKPTSDAERQVADGEDDFITAIASPDRYDMLSPTIVYDDFRDVFILWANNTGDVGYQNGQANFVEMRYSDDGITWGEPVRVNGFLGLDENGQQLAPWHQDVQYVPDLKEFVCISQCFAGRNPDGSVLHLTTSKDGVNWEQVGTKPLLSPGPDGSWDDFQIYRSSFYYEPGSSAGDGTMRVWYSALQKDTNNKMVADSSGNLTIQAKSEDDRIWRIGYAENSFVEMMRVLLDDPGYTTPALVSGNSLMLSAETTSLPTGDVMKLETSFAPVDTSDQVVKYTSSDPDVATVDEFGTITGVSVGSARIMAETREGLSDDLEIAVVENPYTLIPQSNMTATATSVYGGTTEGPASNVLDGNVRTIWHTNYAPKDELPQSITVSFDQPYTVGRFVYTPRQNGTNGIISEYELYAIHQDGSKDLVASGSDWALDAKDKTVSFAPVEAVGLELKAIAGAGGFGTAAELNVYAYGPIEPAPVYVPVDDRDASLVFTGAWNSDSNGSFYEGTARYTNEIGASVEFTFVGTAIRWYGQNDVNFGAAEVYVDGVLAGEVNVYGPAAAQQLLFEADGLAYGKHTIRIVCVSPVVDFDYFSYVGE
Broadly, the kcat/Km is the second-order rate constant that governs catalysis at low substrate concentration. In the case of B1, in data set [1], the kcat/Km was found to be 8210 ± 2070 M⁻¹ s⁻¹.

B2: Flavonifractor plautii GalNAcDeacetylase (FpGalNAcDeAc) truncation _D1ext (Flavonifractor plautii) (protein)
chain: B1 chain
One may read the Km as the concentration of substrate that gives half-maximal velocity. Broadly, the kcat is the maximal rate divided by the concentration of active sites. Consider B2, for which, in data set [2], the Km worked out at 212 ± 37 µM, the kcat was found to be 5.37 s⁻¹ and the kcat/Km was found to be 25230 M⁻¹ s⁻¹.

B3: Flavonifractor plautii GalNAcDeacetylase (FpGalNAcDeAc) truncation _D1 + 2 (Flavonifractor plautii) (protein)
chain: B1 chain
As to B3, in data set [3], the Km came to 265 ± 43 µM, the kcat is 9.99 s⁻¹ and the kcat/Km was 37590 M⁻¹ s⁻¹.

B4: Flavonifractor plautii Galactosaminidase (FpGalNase) truncation _truncA (Flavonifractor plautii) (protein)
chain: AAPATDTGNAGLIAEGDYAIAGNGVRVTYDADGQTITLYRTEGSGLIQMSKPSPLGGPVIGGQEVQDFSHISCDVEQSTSGVMGSGQRMTITSQSMSTGLIRTYVLETSDIEEGVVYTATSYEAGASDVEVSWFIGSVYELYGAEDRIWSYNGGGEGPMHYYDTLQKIDLTDSGKFSRENKQDDTAASIPVSDIYIADGGITVGDASATRREVHTPVQETSDSAQVSIGWPGKVIAAGSVIEIGESFAVVHPGDYYNGLRGYKNAMDHLGVIMPAPGDIPDSSYDLRWESWGWGFNWTIDLIIGKLDELQAAGVKQITLDDGWYTNAGDWALNPEKFPNGASDALRLTDAIHEHGMTALLWWRPCDGGIDSILYQQHPEYFVMDADGRPARLPTPGGGTNPSLGYALCPMADGAIASQVDFVNRAMNDWGFDGFKGDYVWSMPECYNPAHNHASPEESTEKQSEIYRVSYEAMVANDPNVFNLLCNCGTPQDYYSLPYMTQIATADPTSVDQTRRRVKAYKALMGDYFPVTADHNNIWYPSAVGTGSVLIEKRDLSGTAKEEYEKWLGIADTVQLQKGRFIGDLYSYGFDPYETYVVEKDGVMYYAFYKDGSKYSPTGYPDIELKGLDPNKMYRIVDYVNDRVVATNLMGDNAVFNTRFSDYLLVKAVEISEPDPEPVDPDYGFTSVDDRDEALIYTGTWHDDNNASFSEGTARYTNSTDASVVFSFTGTSIRWYGQRDTNFGTAEVYLDDELKTTVDANGAAEAGVCLFEALDLPAAEHTIKIVCKSGVIDIDRFAYEAATLEPIYEKVDALSDRITYVGNWEEYHNSEFYMGNAMRTDEAGAYAELTFRGTAVRLYAEMSFNFGTADVYLDGELVENIILYGQEATGQLMFERTGLEEGEHTIRLVQNAWNINLDYISYLPEQDQPTPPETTVTVDAMDAQLVYTGVWNDDYHDVFQEGTARYASSAGASVEFEFTGSEIRWYGQNDSNFGVASVYIDNEFVQQVNVNGAAAVGKLLFQKADLPAGSHTIRIVCDTPVIDLDYLTYTTNA
For the protein B4, in data set [4], the Km amounted to 54.7 ± 3.1 µM, the kcat was 1.86 s⁻¹ and the kcat/Km was determined as 34080 M⁻¹ s⁻¹.
